Experimental data: publication PMC12866822

Molecular target: pyruvate kinase M2 (PKM2), endogenous in RAW264.7 macrophages (mouse (endogenous in RAW264.7)) (UniProt P52480)
Assay: cross-linking; lysates (RIPA buffer) of cells with endogenous PKM2 (RAW264.7, LX2, WRL68) treated with 1 µM DSS on ice for 1 h, SDS-PAGE, blot with PKM2 antibody; cells treated with the four compounds, or LPS with FE (12.5, 25, 50 µM) or DASA-58

pyruvate kinase M2 (PKM2), endogenous in RAW264.7 macrophages, P52480 1-531 (enzyme; other documents disagree on this pair), sequence (P52480 whole entry): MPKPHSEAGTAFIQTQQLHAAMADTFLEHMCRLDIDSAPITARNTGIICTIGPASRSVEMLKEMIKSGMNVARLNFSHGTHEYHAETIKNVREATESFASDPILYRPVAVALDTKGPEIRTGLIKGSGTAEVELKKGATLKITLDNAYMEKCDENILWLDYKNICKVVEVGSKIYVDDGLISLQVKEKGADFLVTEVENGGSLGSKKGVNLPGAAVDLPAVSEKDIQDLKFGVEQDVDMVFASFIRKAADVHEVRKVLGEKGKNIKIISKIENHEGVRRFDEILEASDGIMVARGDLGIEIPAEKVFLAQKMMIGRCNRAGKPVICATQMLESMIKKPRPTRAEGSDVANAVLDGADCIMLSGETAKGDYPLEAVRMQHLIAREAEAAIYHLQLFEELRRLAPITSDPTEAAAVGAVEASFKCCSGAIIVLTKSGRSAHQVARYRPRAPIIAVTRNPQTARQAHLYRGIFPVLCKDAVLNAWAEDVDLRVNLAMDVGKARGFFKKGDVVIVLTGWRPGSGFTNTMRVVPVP

Substance: pyruvate kinase M2 (PKM2), endogenous in RAW264.7 macrophages, P52480 1-531 (enzyme; other documents disagree on this pair)
- stoichiometry N: 4
